Assay results from article PMC5643558.
Blank lines part the entries; values can stand above or below the substance they belong to.

Experiments:
TRIM21 [1] = biological target: TRIM21 (UniProt P19474); experiment: SFB-TRIM21 pull-down from cells, Flag blot; conditions: reference: WT Flag-rPFKP, EGF; sites S386
TRIM21 [2] = biological target: TRIM21 (UniProt P19474); experiment: S-tag pull-down after in vitro kinase assay; conditions: sites S386

binding against the reference (TRIM21 [1]): stronger
Substance: PFKP (phosphofructokinase 1 platelet isoform) (from UniProt Q01813) Flag-rPFKP S386A, EGF

binding against the reference (TRIM21 [2]; reference: WT PFKP incubated with active GST-AKT1): stronger
Substance: PFKP (phosphofructokinase 1 platelet isoform) (from UniProt Q01813) PFKP S386A incubated with active GST-AKT1

binding against the reference (TRIM21 [2]; reference: WT PFKP without AKT1): weaker
Substance: PFKP (phosphofructokinase 1 platelet isoform) (from UniProt Q01813) WT PFKP incubated with active GST-AKT1
